The source of these data is US20190322748A1.

Assay [1] concerns the target full-length human Tim3 on cells (CHO-K1 stably transfected with plasmid 15312_hTIM3-fl_pUC_Neo) (human) (UniProt Q8TDQ0). The assay can be described thus: cell-based or functional assay.
For assay [2], the target named is Tim3-ECD-His-Biotin (human) (UniProt Q8TDQ0). The assay can be described thus: ELISA on human Tim3.
Assay [3] deals with monomeric cyno Tim3-ECD (cynomolgus). Briefly: ELISA on cynomolgus Tim3.
The target of assay [4] is full-length human Tim3 on cells (CHO-K1 stably transfected with plasmid 15312_hTIM3-fl_pUC_Neo) (human) (UniProt Q8TDQ0). The assay can be described thus: cellular ELISA on CHO-TIM3 (values in relation to the samples max value). For orientation: An ELISA detects its analyte on a solid surface through an enzyme-linked reagent.
For assay [5], the target named is monomeric cyno Tim3-ECD (cynomolgus). The assay can be described thus: ELISA on cynomolgus Tim3 (values in relation to the samples max value).
In assay [6] the target is huFc fused dimeric human Tim3-ECD (human) (UniProt Q8TDQ0). Briefly: SPR BIAcore B4000, Ab captured on anti-mouse IgG, 25 C, dimeric antigen (avidity).
Assay [7] has as its target monomeric human Tim3-ECD (human) (UniProt Q8TDQ0). The assay can be described thus: SPR BIAcore B4000, Ab captured on anti-mouse IgG, 25 C. In general terms: In SPR one partner is held on a chip, and binding of the other changes the refractive index at the surface.
The target in assay [8] is monomeric cyno Tim3-ECD (cynomolgus). The assay is described as above.
Assay [9] has as its target Tim3-ECD-His-Biotin (human) (UniProt Q8TDQ0). The assay can be described thus: ELISA on human Tim3 (values in relation to the samples max value).
Assay [10] deals with full-length human Tim3 on cells (CHO-K1 stably transfected with plasmid 15312_hTIM3-fl_pUC_Neo) (human) (UniProt Q8TDQ0). The assay can be described thus: cellular ELISA on CHO-TIM3.

As usually defined, the EC50 is the midpoint of the concentration-response curve. Higher therefore signals a less potent agent. Turning to Reference antibody Biolegend F38-2E2, the IFN-gamma release in MLR at 1 µg/ml antibody, % of rec hu IL-2 (20 EU/ml) = 100% in assay [1] was 7%. This substance showed an IFN-gamma release in MLR at 10 µg/ml antibody, % of rec hu IL-2 (20 EU/ml) = 100% in assay [1] of 26%. Also, the IFN-gamma release in MLR at 40 µg/ml antibody, % of rec hu IL-2 (20 EU/ml) = 100% in [1] is 36%. The Inflexion point was determined as 88.3 ng/mL in assay [2], 210000 ng/mL in assay [3] and 224 ng/mL in assay [10]. In addition, the EC50 was determined as 0.15 µg/mL in assay [4], 0.423 µg/mL in [5] and 0.0732 µg/mL in assay [9]. Besides, the results for the Kd in assay [6], in [7] and in assay [8] were 7.5 nM, 13.6 nM and 168 nM, respectively.
